{"source": "the nanobody polyreactivity screen of Harvey et al. (2022)"}
{"assay": "yeast display, Sf9 membrane polyspecificity reagent, FACS + sequencing; frameworks hold sequencing errors", "outline": "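Synthetic nanobody libraries on Saccharomyces cerevisiae BJ5465 were galactose-induced for 36–48 hours, stained 1 hour at 4 °C with 10% biotinylated, detergent-solubilized Sf9 membrane reagent and enriched on streptavidin microbeads. FACS then separated cells into low and high (top ~1%) gates by anti-HA (expression) and streptavidin (reagent binding) fluorescence. Genes were colony-PCR amplified, MiSeq 2 × 250 sequenced and CDR-length filtered. A clone's polyreactivity label is that of its gate of origin.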"}
{"sequence": "QVQHVESGGGLVQAGGTLRLSSAASGSTYRWYAMGSYRQAPGKERELVAAITFRGGRTYYADSVKGRFTISRDNAKNTVYLQMNSLKPEDTAVYYFNAVTYSSPYRFDYWGQGTQVTVSS", "polyreactivity (PSR sort gate)": "low polyreactivity"}
{"sequence": "QVQHVESGGGLVQAGRSLRLTSAASGIIFSGYAIGWYRQAPGKERHLVAAISSRCGGTYYADSVKGRFTISRDNAKNTVYFPLNSLKPEDTALYYCAAKRPACIQYSYYYWGQGTQVTVSS", "polyreactivity (PSR sort gate)": "high polyreactivity"}
{"sequence": "QVQHVESGGGLVQAGVSLRLSCAASGFTFHRNAMGWSTQAPGKERELLAAITMKGGSSTYYADSVKGRFTISRDNAKNTVYLQMNSLKPEDTAVYYCARDSYSYTFSKNSDPAEYDYWGQGTQVTLSS", "polyreactivity (PSR sort gate)": "low polyreactivity"}
{"sequence": "QVQHVESGGGLVQAGVSLRLSCAASGSTITYNAMGWYRQAPGKERELVAAITVSDGSTYYADSVKGRFTISRDNAKNTVYLQMNSLKPEDTAVYYCNAYAVYLRYLWYDYWGQGTQVTVSS", "polyreactivity (PSR sort gate)": "low polyreactivity"}
{"sequence": "QVQHVESGGGLVQARGSLRLSCAASGFTFLAYAMGWYRQAPGKERELVAAINSSDCTTHYADSVKGRFTISRDYAKNTVYLQMNSLKPVDTAVYYCNTDWAYLSDYWGQGTQVTVSS", "polyreactivity (PSR sort gate)": "low polyreactivity"}
{"sequence": "QVQHVESGGGLVQARGSLRLSCAASGSIFDLNAMGRYRQAPGKERELVAAISSGGGTYYADSVKGRFTISRDNSKNTVYLQMNSLKPVDTAVYYCKRVTRWTYNYWGQGTQVTVSS", "polyreactivity (PSR sort gate)": "high polyreactivity"}
{"sequence": "QVQHVESGGGLVQARGSLRLTCAASGLILSSNAMGWYRQAPGKERELVAAITWDGDRTYADSVKGRFTISRDNAKNTVYLQRNSLKPEDTAVYYCAADKQYYWYDWSYDYWGQGTQVTVSS", "polyreactivity (PSR sort gate)": "low polyreactivity"}
{"sequence": "QVQHVESGGGLVQEGGRLRLSCAASGITFGANTMGWSRQAPGKERELVAAITISGGITHYADSVKGRFTISRDNAKNTVYLQMNSLKPEDTAVYYCAAGAYWRLYPYRLRNVGRMYYWGQGTQVTVSS", "polyreactivity (PSR sort gate)": "low polyreactivity"}
{"sequence": "QVQHVESGGGVVQAGGSLRLSCAASVRTFRYYDMGWYRQAPGTERELVAAITSRGGSSYYADSVKGRFTISRDNAKYTVYLQMNSLKPEDTAVYYCNAYPVQIFYLGNRQYNYWGQGTQVTVSS", "polyreactivity (PSR sort gate)": "high polyreactivity"}
{"sequence": "QVQHVESGGRLVQAGGSLRLSCAASGSIFAAYAMGWYRQAPGKERELVAAISRSGASTYYADSVKGRFTISRDNAKNTVYLQMNSLKPVDTAVYYCAADTYAYPHDNYDYWGQGTQVTVSS", "polyreactivity (PSR sort gate)": "low polyreactivity"}
{"sequence": "QVQHVESGGRLVQAVGSLRLSCAASGFTFTRHAMGWYRQAPGKERDLVSRISSRGGSTYYADSVKGRFTISRDNAKNTVYLQMNSLKPEDTAVFYCAAPVRKSSYTRYDSWGQGTQVTVSS", "polyreactivity (PSR sort gate)": "high polyreactivity"}
{"sequence": "QVQHVESGGVIVQAGGSHRLSCAASGHIFFYYTMGWYRQAPGKERELVAGITIGGSTNYADSVKGRFTISRDTAKNTVYLQMNSLKPEDTAVYYCNVVKYVYIYSYWEYYYWGQGTQVTVSS", "polyreactivity (PSR sort gate)": "low polyreactivity"}
{"sequence": "QVQHVESGRGLVQAGGSLRLSCASSGFTFRRNAMGWYRQAPGKVRELVAVITSSARTNYADSVKGRFTISRDNAKNTVYLQMKSLKPEDTAVYYCNAYGYRQSSSDKYGYWGQCTQVTVSS", "polyreactivity (PSR sort gate)": "high polyreactivity"}
{"sequence": "QVQHVESRGGLVQAGGSLRLSCAASGFILYLNAMGWYRQAPGKERELVAAITSDGGSTYYADSVKGRFTISRDNAKNTVYLQMNSLKPEDTAVYYCAADNYPDEYDYWGQGTQVTVSS", "polyreactivity (PSR sort gate)": "low polyreactivity"}
{"sequence": "QVQHVESRGGLVQAGGSLRLSCAASGIILSPYAMGWYRQAPGKERELVAAISRSGGSTYYADSVKGRFTISRDNAKNTVYLQMNSLKPEDTAVYYCAARYHVYSNYYKYDYCGQGTQVTVSS", "polyreactivity (PSR sort gate)": "high polyreactivity"}
{"sequence": "QVQHVESRGGLVQAGGSLRLSCAASGLIFALYAMGWYRLAHGKERELVAAIDWSGGSTYYADSVKGRFTISRDNAKNTVYLQMNCLKPEDTAVYYCAADISSSPGNDYWGQGTQVTVSS", "polyreactivity (PSR sort gate)": "high polyreactivity"}
{"sequence": "QVQHVESVGGLLQAGGSLPLSCASSGSTFTGYAMGRYREAPGIVRELVAAISSSGGRTYYADSVKGRFTISRDNAKNTVYLQMNSLKPEDTAVYYCAVRPRYRPSGYVEYDSWGQSTQVTVSS", "polyreactivity (PSR sort gate)": "high polyreactivity"}
{"sequence": "QVQHVESVGGLVQAGGSLRLICAASGGTIDTYAIGWYRQAPGKERELVAGIDWSGGSTYYADSVKGRFTISRDNSKNTVYLQMNSLKPEDTAVYYCAADYYYPSQMDYWGQGTQVTVSS", "polyreactivity (PSR sort gate)": "low polyreactivity"}
{"sequence": "QVQHVESVGGLVQAGGSLRLSCAASGITFNYNAMGWYRQAPGKERELVAAIRGSDSTTYYADSVKGRFTISRDNAKNTVYLQMNSLKPEDTAVYYCAAVGVVPRKKSARVYYWGQGTQVTVSS", "polyreactivity (PSR sort gate)": "low polyreactivity"}
{"sequence": "QVQHVESVGGLVQAGGSLRLSCAASGRTFTSYDMGWYRQAPLTEREVVAAITGSYTYYADSVKGRFTISRDNAKNTVYLQFNSLKPEDTAVYYCAADEDDVVSGFLRYFYVSYYYWGQGTQVTVSS", "polyreactivity (PSR sort gate)": "low polyreactivity"}
{"sequence": "QVQHVESVGGLVQAGGSLRLSCAASGYIFIRYPMGCYRQANGKERELDAAITWSDGTTYYADSVKGRFTISRDNAKNTVYLQMNSLKPEDTAVYYCAADRKVESVSRYDYWGQGTQVTVSS", "polyreactivity (PSR sort gate)": "low polyreactivity"}
{"sequence": "QVQHVETGGGLVQAGGSLRLSCAASGFIFTRYVMGWSRQAPGKERELVAAISRIGASTYYADSVKGRFSISRDNAKNPVYLQMNSLKPEDTAVYYCNVVSGGYFEYEYCGQGTQVTVSS", "polyreactivity (PSR sort gate)": "high polyreactivity"}
{"sequence": "QVQHVETGGGLVQAGGSLRLSCAASGFLFYFNDKGWYRQAPGKERELVASITSGASTNYADSVKGRFTISRDNAKNTVYLQMNSLKPEDTAVYYCAAAYFWLYPYVEYDYWGQGTQVTVSS", "polyreactivity (PSR sort gate)": "low polyreactivity"}
{"sequence": "QVQHVETGGGLVQAGGSLRLSCDASGRIFYNYVMGWYRQAPGKERELVAAISFSSGNTYYADSVKGRFTISRDNAKNSVYLQMNSLTPEDTAVYYCNADIYTWFQIGGYQYDYWGQGTQVTVSS", "polyreactivity (PSR sort gate)": "low polyreactivity"}
{"sequence": "QVQHVHSGGGLVQAGGSLRLTCAASGSTFVGNAMVRYRQATGKERELVATISNSGGRTYYADSVKGRFTISRDNPKNTVYLQMNSLKAEDTAVYFCAADHPAFVPVYSFDYWGQGTQVNVSS", "polyreactivity (PSR sort gate)": "low polyreactivity"}
{"sequence": "QVQIEESGGGLDQAGGSLRLTCAASGFTIPSYTRGWYRQAPGKERELVAAISRSDGTTYYAYSVKGRFTISRDNAKNSVYLQLNSLKPEDTAVYYCNKAYKRYGYHYDYWGQGTQVTVSS", "polyreactivity (PSR sort gate)": "high polyreactivity"}
{"sequence": "QVQIEESGGGLVQAGGSHRLSCAASGSTSYWYAMGWSRQAPRKERELVAAISSDDSTNYADSVKGRFTISRDNAKNTVYLQMNSLKPEDTAVYYFNREHYLIRYDYWGQGTQVTVSS", "polyreactivity (PSR sort gate)": "low polyreactivity"}
{"sequence": "QVQIEESGGGLVQAGGSLRLSCAASGLIFYYYAMGWYRQAPRKERELVAVFTESGYSTYYADYVKGLFTISRDYAKNNDYLQMNRLKPEDTAVYYCAAHGRAYVGGVGDDYWGQGTQVTVSS", "polyreactivity (PSR sort gate)": "low polyreactivity"}
{"sequence": "QVQIEESVGDLVQAGGSLRLICAASGRTFPVYDMGWYRQAPGKERELVAAISRRAVRTYYADSVKGRFTISRDIAKNTVYLQMNSLKPEDTAVYYCNAVLRKITYDYWGQGTQVTVSS", "polyreactivity (PSR sort gate)": "high polyreactivity"}
{"sequence": "QVQIGESGGGLVQAGGSLRLSCAASGFIIGTNTMGWYRQAPGKERELVAAITSVGSTNYADSVKGRFTISRDNAKNTVYLQMNSLKPEDTAVYYCPATLYYQYGGDYWGQGTQVTVSS", "polyreactivity (PSR sort gate)": "low polyreactivity"}
{"sequence": "QVQILESGVCLVQARGSLRLSCAASGRTFRSNAMGWYRQAPGKERDLVAAITSSGGRTYYADSVKGRFTISRDNAKNTVYLQMNILKPEDTAVYYCNAVLRQYYRAYDYWGQGTQGTVSS", "polyreactivity (PSR sort gate)": "high polyreactivity"}
{"sequence": "QVQIVDSGGGLVQAGGSLRISCAASGYISRVYAMGWYRQAPRKERELVAAITRSTTYYADSVKGRFTISRDNAKNTVYLQMNSLKPEDSAVYYCNAVWASPGQVRMYYWGQGTQVNVSS", "polyreactivity (PSR sort gate)": "high polyreactivity"}
{"sequence": "QVQIVESAAGIVQAGGSLRLSCAASGSIFLLYAIGWYRQAPGKEMEFVAAITRGGGSTYYADSVKGRFTISRDNEKNIDYLQINSLIPEDTAVYYWYKGFQYHNGSLVVAYDYWGQGTQVTVSS", "polyreactivity (PSR sort gate)": "low polyreactivity"}
{"sequence": "QVQIVESAGGLVQAGGSLSLSCAASGITYVFYALGWYRQEPGKERELVSDMSWSGGITYYADSVMGRFTISRDNAKNTVYLQMNSLKPEDPAVYYCAATKRQTKYYGGTTDSIMYYWGQGTQVTVSS", "polyreactivity (PSR sort gate)": "low polyreactivity"}
{"sequence": "QVQIVESCGALVQAGRSLSLSCAASGSTFWDNVMGSYRQAPGKERELVAASTSGGSTNYADSVKGRFTISRDNAMNTDYLQLNSLIPEDTAVYYCAAGWYLYVLPYRYYYWRQGTQVTVSS", "polyreactivity (PSR sort gate)": "low polyreactivity"}
{"sequence": "QVQIVESGGALVQAGGSLSLSCAASRSTFYRNDMGWYRQAPGKEREFVAAISFRGGGTYADSVKGRFTISRDNAKITVYLQMNSLKPEDTAVYYCAADHLSYRRRYEYWGQGTQVTVSS", "polyreactivity (PSR sort gate)": "low polyreactivity"}
{"sequence": "QVQIVESGGGIVQAGGSLRLSCGASGRTFYYYAMGWYRQAPGKERELVASITWSGSSTTYADSVKGRFTISRDNSKNTFVLQLNRLKQQASAVYYCAADPYFWGYHFRRYGSWGQGTQVTVSS", "polyreactivity (PSR sort gate)": "low polyreactivity"}
{"sequence": "QVQIVESGGGLDQAGGSLRLSCAASGSTFVLNPMGWYRQAPGKERGMVAAISSGGRTYYADSVKGRFTISRDNAKNTVYLQMNSLKPEDTAVYYCAANPYRGGHGTLFGYWGQGSQVTVSS", "polyreactivity (PSR sort gate)": "high polyreactivity"}
{"sequence": "QVQIVESGGGLFQAGGSLRLSCAASGLIFYSYAMGWYRQAPWKERELVAAISSGGGSTYYADSVKGRFTISRDNAKNTVYLQLNSLKPEDTAVYYCNRLYKYRTPDYDHWGQGTQVTVSS", "polyreactivity (PSR sort gate)": "high polyreactivity"}
{"sequence": "QVQIVESGGGLVEAGGSLRLSCAASGRTFWYIAMGWYRQSPGKASELVAAISYTGSRTYYADSVKGRFTISRYNAKNTVYLQMNSLKPDDTAVYYCNALARRPDAYAHYGYWGQGTQVSVSS", "polyreactivity (PSR sort gate)": "high polyreactivity"}
{"sequence": "QVQIVESGGGLVQAGGRLRLSFSASGIIFTGNAMGWYRQAPGKERELVAAITSGDTTNYADSVKGRFTISRDNAKNTVYLLMNSLKPEDTAVYYCAKELQVRQAGDYWGQGTQVTVSS", "polyreactivity (PSR sort gate)": "low polyreactivity"}
{"sequence": "QVQIVESGGGLVQAGGSHRLSCAASGSTFVYNAMGWYRQAPGIQRELVAAITVIGGRTYYADSVKGRFTISRDNAKNTVYLQMNSLKPEDTSVYYCNGTWAYRGHGYWGQGTEVTVSS", "polyreactivity (PSR sort gate)": "low polyreactivity"}
{"sequence": "QVQIVESGGGLVQAGGSHRLSCADSGRTFGVNTMGWYRQAPAKERQFVAAISSRSGSTYYADSVKGRFTISRDNAKNNVYLQMNSLKPEDTAVDYCAKGPLPRAGVKFDYWGHGTQVTVSS", "polyreactivity (PSR sort gate)": "low polyreactivity"}
